This is an account of results in publication PMC6090299, “Quantitative Analysis of Interaction Between CADM1 and Its Binding Cell-Surface Proteins Using Surface Plasmon Resonance Imaging” (Frontiers in Cell and Developmental Biology, 2018).

First the molecules themselves.
T1: CADM4-Fc (human (by the printed RefSeq entry))
T1 sequence (Q8NFZ8 whole entry, looked up): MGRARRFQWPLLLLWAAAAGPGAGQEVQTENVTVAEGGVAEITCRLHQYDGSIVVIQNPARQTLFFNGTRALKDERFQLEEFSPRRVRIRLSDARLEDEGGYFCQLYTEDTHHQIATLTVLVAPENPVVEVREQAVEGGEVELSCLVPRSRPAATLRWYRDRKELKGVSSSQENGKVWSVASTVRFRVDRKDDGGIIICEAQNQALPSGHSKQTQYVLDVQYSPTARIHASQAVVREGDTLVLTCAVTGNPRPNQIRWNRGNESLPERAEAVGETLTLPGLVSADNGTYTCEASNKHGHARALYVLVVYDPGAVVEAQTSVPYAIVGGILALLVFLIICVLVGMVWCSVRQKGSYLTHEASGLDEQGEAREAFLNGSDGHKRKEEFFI

T2: CADM2-Fc (human (by the printed RefSeq entry), UniProt Q8N3J6-1 25-367)
T2 construct: signal peptide in the construct; CADM2 extracellular domain, NP_001161146, 1-367 a.a; Human IgG2-Fc fragment from pFUSE-hIgG2-Fc1; source: FreeStyle 293-F cells, transiently transfected, purified from the supernatant (Protein G Sepharose); not shown: Fc (human IgG2), C-terminal, kept
T2 sequence (looked up): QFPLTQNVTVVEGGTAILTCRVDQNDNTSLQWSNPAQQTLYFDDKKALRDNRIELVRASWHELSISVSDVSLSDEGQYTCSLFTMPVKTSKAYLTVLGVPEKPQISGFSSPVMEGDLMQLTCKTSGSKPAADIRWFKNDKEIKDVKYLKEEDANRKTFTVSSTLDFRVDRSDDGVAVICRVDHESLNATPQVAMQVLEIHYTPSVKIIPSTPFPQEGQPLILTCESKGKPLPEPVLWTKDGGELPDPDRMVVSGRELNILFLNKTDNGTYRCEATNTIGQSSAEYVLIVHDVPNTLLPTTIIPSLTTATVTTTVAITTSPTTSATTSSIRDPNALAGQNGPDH

B1: CADM3-Fc (Fc fusion, human (by the printed RefSeq entry), UniProt Q8N126-1 25-330, looked up)
chain: NLSQDDSQPWTSDETVVAGGTVVLKCQVKDHEDSSLQWSNPAQQTLYFGEKRALRDNRIQLVTSTPHELSISISNVALADEGEYTCSIFTMPVRTAKSLVTVLGIPQKPIITGYKSSLREKDTATLNCQSSGSKPAARLTWRKGDQELHGEPTRIQEDPNGKTFTVSSSVTFQVTREDDGASIVCSVNHESLKGADRSTSQRIEVLYTPTAMIRPDPPHPREGQKLLLHCEGRGNPVPQQYLWEKEGSVPPLKMTQESALIFPFLNKSDSGTYGCTATSNMGSYKAYYTLNVNDPSPVPSSSSTYH
notes: signal peptide in the construct; CADM3 extracellular domain, NP_001120645, 1-330 a.a; Human IgG2-Fc fragment from pFUSE-hIgG2-Fc1; source: FreeStyle 293-F cells, transiently transfected, purified from the supernatant (Protein G Sepharose); not shown: Fc (human IgG2), C-terminal, kept
B2: CADM1-Fc (Fc fusion, human (by the printed RefSeq entry), UniProt Q9BY67-1 45-374, looked up)
chain: QNLFTKDVTVIEGEVATISCQVNKSDDSVIQLLNPNRQTIYFRDFRPLKDSRFQLLNFSSSELKVSLTNVSISDEGRYFCQLYTDPPQESYTTITVLVPPRNLMIDIQKDTAVEGEEIEVNCTAMASKPATTIRWFKGNTELKGKSEVEEWSDMYTVTSQLMLKVHKEDDGVPVICQVEHPAVTGNLQTQRYLEVQYKPQVHIQMTYPLQGLTREGDALELTCEAIGKPQPVMVTWVRVDDEMPQHAVLSGPNLFINNLNKTDNGTYRCEASNIVGKAHSDYMLYVYDPPTTIPPPTTTTTTTTTTTTTILTIITDSRAGEEGSIRAVDH
notes: signal peptide in the construct; CADM1 extracellular domain, NP_055148, 1-374 a.a; Human IgG2-Fc fragment from pFUSE-hIgG2-Fc1; Glycosylated; also called cell adhesion molecule 1 extracellular domain fused with Fc; source: FreeStyle 293-F cells, transiently transfected, purified from the supernatant (Protein G Sepharose); not shown: Fc (human IgG2), C-terminal, kept

Data set [1] concerns the molecule itself. Briefly: SPR; SPR imaging (OpenPlex); the 10 IgSF-Fc proteins spotted and immobilised by amine coupling; CADM2-Fc, CADM3-Fc or CADM4-Fc injected as analyte; 25°C; PBS with 0.2% BSA and 0.02% Tween20, 50 μL/min. On the technique in general: Surface plasmon resonance follows binding to a sensor surface in real time, without labels.
The data set “CADM1-Fc” addresses B2. Briefly: SPR; SPR imaging (OpenPlex); the 10 IgSF-Fc proteins (7-24 μM) spotted in hexaplicate and immobilised by amine coupling; 2.4 μM CADM1-Fc injected for 4 min; 25°C; PBS with 0.2% BSA and 0.02% Tween20, 50 μL/min; signal of normal human IgG subtracted. The settings on record: both partners purified.
Data set [2] concerns the target T1, CADM4-Fc (human (by the printed RefSeq entry)). The description is as above.
The target of the next data set is T2, CADM2-Fc. The description is as above. The conditions noted are these: both partners purified.
Data set [3] concerns the molecule itself. Described as above.

The Kd is the free concentration of one partner at which half of the binding sites on the other are occupied at equilibrium, for simple one-to-one binding. A higher Kd goes with a looser complex. In general, koff refers to the rate constant with which the complex falls apart. Lower therefore signals slow dissociation. The kon is the second-order rate constant of association. A lower kon goes with slow association. For B1, the binding result in data set [1] is on record as “binds”. In addition, in the data set with CADM1-Fc, the Kd was determined as 80.1 nM, the koff stood at 0.007 s⁻¹ and the kon is 84000 M⁻¹ s⁻¹.

In the case of B2, in data set [2], the Kd stood at 193 nM, the koff worked out at 0.019 s⁻¹ and the kon is 99000 M⁻¹ s⁻¹. In the data set with CADM2-Fc, this molecule had a Kd of 86.8 nM, an off-rate constant (koff) of 0.0064 s⁻¹ and a kon of 74000 M⁻¹ s⁻¹. For the same molecule, in data set [3], binding was characterised by a dissociation constant (Kd) of 114 nM, the dissociation rate constant (koff) came to 0.0073 s⁻¹ and the kon was found to be 64000 M⁻¹ s⁻¹.
